Results on one molecule are retold here after patent US20050079613A1, “Downregulation of cell surface glycoproteins by a family of human ubiquitin ligases” (Oregon Health & Science University, priority 2002, published 2005).

This assay relates to Fas (CD95), MHC I, HLA-A2.1, CD4, transferrin receptor, B7.1. Kind of assay: Surface glycoprotein panel on transfected HeLa cells, flow cytometry. The assay is classed as cell-based, human. The following applies: HeLa cells transfected with MARCH plasmid. As for the experimental part:
Flow cytometry. Cells were removed from tissue culture dishes with 0.05% Trypsin-EDTA (Invitrogen), washed with ice-cold PBS, and incubated with appropriate antibody for 30 minutes at 4° C. The cells were washed with ice-cold PBS and either resuspended in ice-cold PBS or incubated with PE-conjugated anti-mouse secondary antibody (DAKO) and washed again before analysis with a BD Biosciences (San Jose, Calif.) FACScalibur flow cytometer.
The ability to downregulate MHC I is common to KSHV-K3, KSHV-K5, MHV68-K3 and MV-M153R (Coscoy and Ganem, 2000, supra; Guerin et al., 2002, supra; Ishido et al., 2000b supra; Stevenson et al., 2000, supra). Additional substrates are ICAM-1 and B7.2 (but not B7.1) for KSHV-K5, as well as CD95 and CD4 for M153R (Coscoy and Ganem, 2001, supra; Guerin et al., 2002, supra; Ishido et al., 2000a, supra; Mansouri et al., 2003, supra). Since only low copy numbers were detected in HeLa cells for transcripts corresponding to each of the MARCH-proteins (FIG. 7C, and data not shown), HeLa cells were transfected with expression plasmids for MARCH-I, II, III, IV, V and VIII. Surface expression of selected glycoproteins was monitored upon transfection. […] Surface expression of the respective markers was analyzed by flow cytometry. […]

B1: MARCH-V: four-transmembrane human RING-CH protein, SEQ ID NOS:47 and 58 (protein, listed as Homo sapiens)
chain: MPDQALQQMLDRSCWVCFATDEDDRTAEWVRPCRCRGSTKWVHQACLQRWVDEKQRGNSTARVACPQCNAEYLIVFPKLGPVVYVLDLADRLISKACPFAAAGIMVGSIYWTAVTYGAVTVMQVVGHKEGLDVMERADPLFLLIGLPTIPVMLILGKMIRWEDYVLRLWRKYSNKLQILNSIFPGIGCPVPRIPAEANPLADHVSATRILCGALVFPTIATIVGKLMFSSVNSNLQRTILGGIAFVAIKGAFKVYFKQQQYLRQAHRKILNYPEQEEA
As to B1, the “reduction in surface levels of any of the glycoproteins of the panel” value is “No reduction in surface levels”.
